Measured values from paper PMC11746154.

B1: Rec104-LexA [S. cerevisiae] / Gal4AD-Spo11 [S. cerevisiae] (parent)
chain 1: MALEGLRKKYKTRQELVKALTPKRRSIHLNSNGHSNGTPCSNADVLAHIKHFLSLAANSLEQHQQPISIVFQNKKKKGDTSSPDIHTTLDFPLNGPHLCTHQFKLKRCAILLNLLKVVMEKLPLGKNTTVRDIFYSNVELFQRQANVVQWLDVIRFNFKLSPRKSLNIIPAQKGLVYSPFPIDIYDNILTCENEPKMQKQTIFPGKPCLIPFFQDDAVIKLGTTSMCNIVIVEKEAVFTKLVNNYHKLSTNTMLITGKGFPDFLTRLFLKKLEQYCSKLISDCSIFTDADPYGISIALNYTHSNERNAYICTMANYKGIRITQVLAQNNEVHNKSIQLLSLNQRDYSLAKNLIASLTANSWDIATSPLKNVIIECQREIFFQKKAEMNEIDARIFEYK
chain 2: MSIEEEDTNKITCTQDFLHQYFVTERVSIQFGLNNKTVKRINKDEFDKAVNCIMSWTNYPKPGLKRTASTYLLSNSFKKSATVSLPFILGDPVCMPKRVESNNNDTCLLYSDTLYDDPLIQRNDQAGDEIEDEFSFTLLRSEVNEIRPISSSSTAQILQSDYSALMYERQASNGSIFQFSSP
B2: LexA-Rec102 [S. cerevisiae] / Gal4AD-Spo11 [S. cerevisiae] (parent)
chain 1: B1 chain 1
chain 2: MARDITFLTVFLESCGAVNNDEAGKLLSAWTSTVRIEGPESTDSNSLYIPLLPPGMLKIKLNFKMNDRLVTEEQELFTKLREIVGSSIRFWEEQLFYQVQDVSTIENHVILSLKCTILTDAQISTFISKPRELHTHAKGYPEIYYLSELSTTVNFFSKEGNYVEISQVIPHFNEYFSSLIVSQLEFEYPMVFSMISRLRLKWQQSSLAPISYALTSNSVLLPIMLNMIAQDKSSTTAYQILCRRRGPPIQNFQIFSLPAVTYNK

Variants of: B1
Assay: Y2H β-galactosidase assay
Conditions: with Gal4AD-Spo11 [S. cerevisiae]; parent: 1; read off a plot

Row | Variant | response (normalized β-gal units)
1 | chain 2 MSIEEEDTNKITCTQAFLHQYFVTERVSIQFGLNNKTVKRINKDEFDKAVNCIMSWTNYPKPGLKRTASTYLLSNSFKKSATVSLPFILGDPVCMPKRVESNNNDTCLLYSDTLYDDPLIQRNDQAGDEIEDEFSFTLLRSEVNEIRPISSSSTAQILQSDYSALMYERQASNGSIFQFSSP [chain 2 D16A] | 1.1
2 | chain 2 MSIEEEDTNKITCTQRFLHQYFVTERVSIQFGLNNKTVKRINKDEFDKAVNCIMSWTNYPKPGLKRTASTYLLSNSFKKSATVSLPFILGDPVCMPKRVESNNNDTCLLYSDTLYDDPLIQRNDQAGDEIEDEFSFTLLRSEVNEIRPISSSSTAQILQSDYSALMYERQASNGSIFQFSSP [chain 2 D16R] | 0.53

Results, then the variant that gave them:

Row | response (normalized β-gal units) | Variant
3 | 0.93 | chain 2 MSIEEEDTNKITCTQDFLHQYAVTERVSIQFGLNNKTVKRINKDEFDKAVNCIMSWTNYPKPGLKRTASTYLLSNSFKKSATVSLPFILGDPVCMPKRVESNNNDTCLLYSDTLYDDPLIQRNDQAGDEIEDEFSFTLLRSEVNEIRPISSSSTAQILQSDYSALMYERQASNGSIFQFSSP [chain 2 F22A]
4 | 0.75 | chain 2 MSIEEEDTNKITCTQDFLHAYFVTERVSIQFGLNNKTVKRINKDEFDKAVNCIMSWTNYPKPGLKRTASTYLLSNSFKKSATVSLPFILGDPVCMPKRVESNNNDTCLLYSDTLYDDPLIQRNDQAGDEIEDEFSFTLLRSEVNEIRPISSSSTAQILQSDYSALMYERQASNGSIFQFSSP [chain 2 Q20A]
5 | 0.02 | chain 2 MSIEEEDTNKITCTQDFLHQAFVTERVSIQFGLNNKTVKRINKDEFDKAVNCIMSWTNYPKPGLKRTASTYLLSNSFKKSATVSLPFILGDPVCMPKRVESNNNDTCLLYSDTLYDDPLIQRNDQAGDEIEDEFSFTLLRSEVNEIRPISSSSTAQILQSDYSALMYERQASNGSIFQFSSP [chain 2 Y21A]

Same assay, conditions: with Rec104-LexA [S. cerevisiae]; parent: 1; read off a plot

Row | response (normalized β-gal units) | Variant
6 | 0.85 | chain 1 MALEGLAKKYKTRQELVKALTPKRRSIHLNSNGHSNGTPCSNADVLAHIKHFLSLAANSLEQHQQPISIVFQNKKKKGDTSSPDIHTTLDFPLNGPHLCTHQFKLKRCAILLNLLKVVMEKLPLGKNTTVRDIFYSNVELFQRQANVVQWLDVIRFNFKLSPRKSLNIIPAQKGLVYSPFPIDIYDNILTCENEPKMQKQTIFPGKPCLIPFFQDDAVIKLGTTSMCNIVIVEKEAVFTKLVNNYHKLSTNTMLITGKGFPDFLTRLFLKKLEQYCSKLISDCSIFTDADPYGISIALNYTHSNERNAYICTMANYKGIRITQVLAQNNEVHNKSIQLLSLNQRDYSLAKNLIASLTANSWDIATSPLKNVIIECQREIFFQKKAEMNEIDARIFEYK [chain 1 R7A]
7 | 0.24 | chain 1 MALEGLDKKYKTRQELVKALTPKRRSIHLNSNGHSNGTPCSNADVLAHIKHFLSLAANSLEQHQQPISIVFQNKKKKGDTSSPDIHTTLDFPLNGPHLCTHQFKLKRCAILLNLLKVVMEKLPLGKNTTVRDIFYSNVELFQRQANVVQWLDVIRFNFKLSPRKSLNIIPAQKGLVYSPFPIDIYDNILTCENEPKMQKQTIFPGKPCLIPFFQDDAVIKLGTTSMCNIVIVEKEAVFTKLVNNYHKLSTNTMLITGKGFPDFLTRLFLKKLEQYCSKLISDCSIFTDADPYGISIALNYTHSNERNAYICTMANYKGIRITQVLAQNNEVHNKSIQLLSLNQRDYSLAKNLIASLTANSWDIATSPLKNVIIECQREIFFQKKAEMNEIDARIFEYK [chain 1 R7D]
8 | 0.72 | chain 1 MALEGLRAKYKTRQELVKALTPKRRSIHLNSNGHSNGTPCSNADVLAHIKHFLSLAANSLEQHQQPISIVFQNKKKKGDTSSPDIHTTLDFPLNGPHLCTHQFKLKRCAILLNLLKVVMEKLPLGKNTTVRDIFYSNVELFQRQANVVQWLDVIRFNFKLSPRKSLNIIPAQKGLVYSPFPIDIYDNILTCENEPKMQKQTIFPGKPCLIPFFQDDAVIKLGTTSMCNIVIVEKEAVFTKLVNNYHKLSTNTMLITGKGFPDFLTRLFLKKLEQYCSKLISDCSIFTDADPYGISIALNYTHSNERNAYICTMANYKGIRITQVLAQNNEVHNKSIQLLSLNQRDYSLAKNLIASLTANSWDIATSPLKNVIIECQREIFFQKKAEMNEIDARIFEYK [chain 1 K8A]

Variants of: B2
Assay: Y2H quantitative β-galactosidase assay
Conditions: with Gal4AD-Spo11 [S. cerevisiae]; parent: 1; read off a plot

Row | response (normalized β-gal units) | Variant
9 | 0.9 | chain 2 MARDITFLTVFLESCGAVNNDEAGKLLSAWTSTVRIEGPESTDSNSLYIPLLPPGMLKIKLNFKMNDRLVTEEQELFTKLREIVGSSIRFWEEQLFYQVQDVSTIENHVILSLKCTILTDAQISTFISKPRELHTHAKGYPEIYYLSELSTTVNFFSKEGNYVEISQVIPHFNEYFSSLIVSQLEFEYPMVFSMISRLRLKWQQSSLAPISYALTSNSVLLPIMLNMIAQDKSSTTAYQILCRRRGPPAQNFQIFSLPAVTYNK [chain 2 I249A]
10 | 0.15 | chain 2 MARDITFLTVFLESCGAVNNDEAGKLLSAWTSTVRIEGPESTDSNSLYIPLLPPGMLKIKLNFKMNDRLVTEEQELFTKLREIVGSSIRFWEEQLFYQVQDVSTIENHVILSLKCTILTDAQISTFISKPRELHTHAKGYPEIYYLSELSTTVNFFSKEGNYVEISQVIPHFNEYFSSLIVSQLEFEYPMVFSMISRARLKWQQSSLAPISYALTSNSVLLPIMLNMIAQDKSSTTAYQILCRRRGPPIQNFQIFSLPAVTYNK [chain 2 L198A]
11 | 0.2 | chain 2 MARDITFLTVFLESCGAVNNDEAGKLLSAWTSTVRIEGPESTDSNSLYIPLLPPGMLKIKLNFKMNDRLVTEEQELFTKLREIVGSSIRFWEEQLFYQVQDVSTIENHVILSLKCTILTDAQISTFISKPRELHTHAKGYPEIYYLSELSTTVNFFSKEGNYVEISQVIPHFNEYFSSLIVSQLEFEYPMVFSMASRLRLKWQQSSLAPISYALTSNSVLLPIMLNMIAQDKSSTTAYQILCRRRGPPIQNFQIFSLPAVTYNK [chain 2 I195A]
